# Laboratory results: US20100310635A1, “Compositions and Methods for Regulating T-Cell Activity” (priority 2007, published 2010)
# Substitutions are numbered along the chain they refer to. “Also recorded” adds a separate entry of the source.
# B1: WT-Foxp3: wild-type mouse Foxp3, 429-aa, retrovirally expressed in CD4+ T cells (protein)
# chain: MPNPRPAKPMAPSLALGPSPGVLPSWKTAPKGSELLGTRGSGGPFQGRDLRSGAHTSSSLNPLPPSQLQLPTVPLVMVAPSGARLGPSPHLQALLQDRPHFMHQLSTVDAHAQTPVLQVRPLDNPAMISLPPPSAATGVFSLKARPGLPPGINVASLEWVSREPALLCTFPRSGTPRKDSNLLAAPQGSYPLLANGVCKWPGCEKVFEEPEEFLKHCQADHLLDEKGKAQCLLQREVVQSLEQQLELEKEKLGAMQAHLAGKMALAKAPSVASMDKSSCCIVATSTQGSVLPAWSAPREAPDGGLFAVRRHLWGSHGNSSFPEFFHNMDYFKYHNMRPPFTYATLIRWAILEAPERQRTLNEIYHWFTRMFAYFRNHPATWKNAIRHNLSLHKCFVRVESEKGAVWTVDEFEFRKKRSQRPNKCSNPCP
# B2: QNKR--: 429-aa Foxp3 with RKKR replaced by QNKR, intact C-terminal tail resistant to proteolytic cleavage (protein, UniProt Q99JB6 1-429, looked up, variant R414Q K415N)
# Forkhead box protein P3: B1 chain with R414Q, K415N
# B3: double-cleaved Foxp3: engineered Foxp3 lacking N-terminal 51-aa and C-terminal tail (366-aa) (protein)
# chain: SGAHTSSSLNPLPPSQLQLPTVPLVMVAPSGARLGPSPHLQALLQDRPHFMHQLSTVDAHAQTPVLQVRPLDNPAMISLPPPSAATGVFSLKARPGLPPGINVASLEWVSREPALLCTFPRSGTPRKDSNLLAAPQGSYPLLANGVCKWPGCEKVFEEPEEFLKHCQADHLLDEKGKAQCLLQREVVQSLEQQLELEKEKLGAMQAHLAGKMALAKAPSVASMDKSSCCIVATSTQGSVLPAWSAPREAPDGGLFAVRRHLWGSHGNSSFPEFFHNMDYFKYHNMRPPFTYATLIRWAILEAPERQRTLNEIYHWFTRMFAYFRNHPATWKNAIRHNLSLHKCFVRVESEKGAVWTVDEFEFRKKR
# B4: C-cleaved PNNW mutant: short 417-aa Foxp3 in which the last four amino acids RKKR are replaced with PNNW (protein, UniProt Q99JB6 1-417, looked up, variant R414P K415N K416N R417W)
# chain: MPNPRPAKPMAPSLALGPSPGVLPSWKTAPKGSELLGTRGSGGPFQGRDLRSGAHTSSSLNPLPPSQLQLPTVPLVMVAPSGARLGPSPHLQALLQDRPHFMHQLSTVDAHAQTPVLQVRPLDNPAMISLPPPSAATGVFSLKARPGLPPGINVASLEWVSREPALLCTFPRSGTPRKDSNLLAAPQGSYPLLANGVCKWPGCEKVFEEPEEFLKHCQADHLLDEKGKAQCLLQREVVQSLEQQLELEKEKLGAMQAHLAGKMALAKAPSVASMDKSSCCIVATSTQGSVLPAWSAPREAPDGGLFAVRRHLWGSHGNSSFPEFFHNMDYFKYHNMRPPFTYATLIRWAILEAPERQRTLNEIYHWFTRMFAYFRNHPATWKNAIRHNLSLHKCFVRVESEKGAVWTVDEFEFPNNW
# B5: QNKR•: short 417-aa Foxp3 mutant without C-terminal tail, terminating with QNKR (protein, UniProt Q99JB6 1-417, looked up, variant R414Q K415N)
# chain: B4 chain with P414Q, N416K, W417R
# Assays:
# RAG−/− (C57BL/6) mice = assay: Adoptive transfer model of IBD; assay type: in vivo, mouse; details: for weight loss: 1×10^5 transduced Thy1.1+CD4+ cells plus 1×10^6 CD4+CD25− Teff cells i.p., weights monitored for 45 days; for histology of duodenal sections: duodenal samples collected at day 45, H&E
# Text: Adoptive transfer model of IBD—CD4+CD25− T cells were isolated from mesenteric lymph nodes using magnetic beads (Miltenyi) to >95% purity (by flow cytometry). CD4+CD25− T cells (1×10^6 cells) were co-injected i.p. into RAG1−/− (C57BL/6) mice along with Thy1.1+CD4+CD25− cells transduced with WT or mutated Foxp3 ([…]). Mice were monitored biweekly for clinical evidence of disease, including weight loss and stool consistency. RAG1−/− mice on the C57BL/6 background were purchased from Taconic Laboratory. Mice were housed in specific pathogen-free conditions, and used for studies approved by the institutional animal care and use committee of the Children's Hospital of Philadelphia.
# Pathology—Gut samples were paraffin embedded and stained by H&E, or snap-frozen and stained by immunoperoxidase using mAbs to Foxp3 and T cell subsets (73).
# To test the effects of the different Foxp3 mutants in vivo, RAG−/− (C57BL/6) mice were injected with 1×10^5 transduced Thy1.1+CD4+ cells expressing either WT-Foxp3 or a mutant Foxp3 (RKKR• (SEQ ID NO: 179), QNKR• (SEQ ID NO: 180), QNKR-- (SEQ ID NO: 180)) or empty vector (control), plus 1×10^6 CD4+CD25− Teff cells. Additional mice received CD4+CD25− Teff cells alone. The weights of the animals in each group were monitored weekly for 45 days.
# [1] = tested on: CD4+CD25− Teff cell proliferation; assay: Suppression assay: suppression of Teff cell proliferation by transduced CD4+ cells expressing Foxp3 forms; assay type: cell-based, mouse; details: retrovirally transduced CD4+ cells expressing the Foxp3 form, co-cultured with CFSE-labeled CD4+CD25− T cells, 72 hr
# Method: Suppression assays—CD4+CD25+ (T-reg) and CD4+CD25− (T-eff) T cell and APC are isolated with magnetic beads following the manufacturer's instructions (Miltenyi). In some cases, 5×10^4 CD4+CD25− T cells were labeled with CFSE and stimulated with CD3 mAb (1 μg/ml) in the presence of irradiated syngeneic APC and varying ratios of activated CD4+ cells that had been transduced with different Foxp3 constructs. […] After 72 hours culture, cells were harvested and CD4+CD25− T cell proliferation was quantified by flow cytometry (Cyan) based on carboxylfluorescein diacetate succininyl ester (CFSE) profile of dividing effector T cells at 72 hr. Absolute numbers of effector T cells were determined by adding equal numbers of Dynabeads to each sample, and during FACS analysis gates were drawn on Dynabeads and collection time was based on set number of bead events for each sample. […]
# WT Foxp3 and engineered Foxp3 mutants (N-terminal cleaved, C-terminal cleaved and N -plus C-terminal-cleaved (double-cleaved)) were retrovirally expressed in CD4+ cells and the ability of the transduced cells to suppress Teff cell proliferation was measured.
Molecule,"survival (RAG−/− (C57BL/6) mice; 1×10^5 transduced CD4+ cells plus 1×10^6 CD4+CD25− Teff cells, 45 days)",weight loss (RAG−/− (C57BL/6) mice),histology of duodenal sections (RAG−/− (C57BL/6) mice),suppression of Teff cell proliferation [1]
B1,survived,minor weight loss; also recorded: benefit,mild cell mononuclear cell infiltration and edema within villi; also recorded: mild mononuclear cell recruitment and villous edema,
B2,,did significantly worse,marked mononuclear cell infiltration of villous processes; also recorded: extensive mononuclear cell recruitment,
B3,,,,suppressed Teff cell proliferation stronger than both WTFoxp3 and N-terminal-cleaved Foxp3
B4,,,,loss in the suppression ability
B5,,negligible weight loss; also recorded: significantly more effective in controlling weight loss,minor mononuclear cell infiltration and edema,
